From IntAct's records for PubMed 10798620

What was measured:
gdir_arath GDI1 [1] = target: gdir_arath GDI1 (UniProt Q9SFC6)
gdir_arath GDI1 [2] = target: gdir_arath GDI1 (UniProt Q9SFC6); remark: listed apart in the source

gdir_arath GDI1, sequence (Q9SFC6 whole entry): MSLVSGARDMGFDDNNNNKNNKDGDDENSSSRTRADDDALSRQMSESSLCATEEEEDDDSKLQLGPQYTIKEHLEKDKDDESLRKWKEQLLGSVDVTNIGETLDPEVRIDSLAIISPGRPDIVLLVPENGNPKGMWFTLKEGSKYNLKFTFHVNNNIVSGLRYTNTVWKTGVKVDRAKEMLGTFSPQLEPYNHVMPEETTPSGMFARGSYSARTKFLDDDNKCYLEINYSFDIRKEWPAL
Rac-like GTP-binding protein ARAC5 (Arabidopsis thaliana (Mouse-ear cress)), Q38937 T20N, sequence (Q38937 whole entry T20N): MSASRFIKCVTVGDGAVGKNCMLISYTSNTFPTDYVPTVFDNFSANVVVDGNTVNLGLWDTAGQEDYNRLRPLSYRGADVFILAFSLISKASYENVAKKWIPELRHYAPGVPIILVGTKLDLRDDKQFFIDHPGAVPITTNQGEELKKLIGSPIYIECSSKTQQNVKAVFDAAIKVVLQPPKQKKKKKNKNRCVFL
Rac-like GTP-binding protein ARAC3 (Arabidopsis thaliana (Mouse-ear cress)), Q38912 T20N, sequence (Q38912 whole entry T20N): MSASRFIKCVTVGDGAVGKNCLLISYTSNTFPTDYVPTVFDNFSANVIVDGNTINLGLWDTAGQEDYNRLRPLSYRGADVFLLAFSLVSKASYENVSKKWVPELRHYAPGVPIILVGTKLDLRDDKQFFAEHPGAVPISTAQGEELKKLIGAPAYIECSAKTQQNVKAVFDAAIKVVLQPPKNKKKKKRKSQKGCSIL

Row | effect of a mutation on the interaction (gdir_arath GDI1 [1]) | effect of a mutation on the interaction (gdir_arath GDI1 [2]) | Substance
1 | disrupting interaction | – | Rac-like GTP-binding protein ARAC5 (Arabidopsis thaliana (Mouse-ear cress)), Q38937 T20N
2 | – | disrupting interaction | Rac-like GTP-binding protein ARAC3 (Arabidopsis thaliana (Mouse-ear cress)), Q38912 T20N
